We go through 6 substances from article PMC11500688.

As usually defined, the stoichiometry N is a count of units in the complex or per binding partner.

Assay [1] has as its target CrCFAP410-CTD mutant L224P. Nature of the assay: static light scattering (SLS). To be noted: parent: 15.62.
For assay [2], the target named is CrCFAP410-CTD mutant A219E (C. reinhardtii). Nature of the assay: SEC-MALS; static light scattering coupled to SEC; 50 μl at 2 mg/ml on Superdex S-200 10/300 GL; 20 mM HEPES pH 7.5, 100 mM NaCl, 1 mM DTT, 1% glycerol; Mini-DAWN Treos. A general note: SEC sorts molecules by how far they enter the pores of the column.
Assay [3] has as its target TbCFAP410-CTD, C-terminal domain of Trypanosoma brucei CFAP410, wild type (T. brucei). As to the kind of experiment: crystal structure; synthetic CTD polypeptides; TbCFAP410-CTD in 2.0 M (NH4)2SO4, 5% iso-propanol, 4°C; HsCFAP410-CTD in 1.5 M NaCl, 10% ethanol, 22°C; CrCFAP410-CTD in 0.02 M CaCl2, 0.1 M sodium acetate pH 5.0, 30% MPD, 4°C.
The target in assay [4] is CrCFAP410-CTD mutant A219E. Nature of the assay: static light scattering (SLS). To be noted: parent: 15.62.
The target of assay [5] is CrCFAP410-CTD, C-terminal domain of Chlamydomonas reinhardtii CFAP410, wild type (C. reinhardtii). Nature of the assay: SEC-MALS; static light scattering coupled to SEC; 50 μl at 2 mg/ml on Superdex S-200 10/300 GL; 20 mM HEPES pH 7.5, 100 mM NaCl, 1 mM DTT, 1% glycerol; Mini-DAWN Treos.
The target is the same in assay [6]. As to the kind of experiment: crystal structure; synthetic CTD polypeptides; TbCFAP410-CTD in 2.0 M (NH4)2SO4, 5% iso-propanol, 4°C; HsCFAP410-CTD in 1.5 M NaCl, 10% ethanol, 22°C; CrCFAP410-CTD in 0.02 M CaCl2, 0.1 M sodium acetate pH 5.0, 30% MPD, 4°C.
Assay [7] has as its target HsCFAP410-CTD, C-terminal domain of Homo sapiens cilia- and flagella-associated protein 410, wild type (human) (UniProt O43822). Described as above.

Turning to “CrCFAP410-CTD, C-terminal domain of Chlamydomonas reinhardtii CFAP410, wild type L224P”, in assay [1], the other: molecular weight (SLS) is 4.16 kDa.

In assay [2], “CrCFAP410-CTD mutant A219E (domain or fragment)” had a stoichiometry N of 2.

In turn, “TbCFAP410-CTD, C-terminal domain of Trypanosoma brucei CFAP410, wild type (domain or fragment)” returned a stoichiometry N in assay [3] of 4.

For the substance “CrCFAP410-CTD, C-terminal domain of Chlamydomonas reinhardtii CFAP410, wild type A219E”, the other: molecular weight (SLS) in assay [4] was 8.35 kDa.

Turning to “CrCFAP410-CTD, C-terminal domain of Chlamydomonas reinhardtii CFAP410, wild type (domain or fragment)”, the stoichiometry N in assay [5] and in assay [6] was 4 each time.

As to “HsCFAP410-CTD, C-terminal domain of Homo sapiens cilia- and flagella-associated protein 410, wild type (from UniProt O43822 212-246) (domain or fragment)”, the stoichiometry N in assay [7] came to 4.
